This series has as its system N=C(N)NCCC[C@H](NC(=O)[C@H](Cc1ccccc1)NC(=O)[C@@H]1CCCN1C(=O)c1ccccc1)C(=O)Nc1ccc([N+](=O)[O-])cc1. The series can be described thus: Km and vmax determination with substrate (Lineweaver-Burk), plasma kallikrein. It counts as biochemical. The following applies: other: plasma kallikrein; substrate concentration varied, enzyme constant; measured at 405 nm. How it is done: As is evident from equation (2) constants Km and k3 determine the activity of the enzyme substrate for a given enzyme. For determining these constants the following procedure is followed:
The enzyme and the substrate are mixed in a buffer solution, and the reaction is followed spectrophotometrically for 2 to 30 minutes. The concentration of substrate [S] is varied, whereas the enzyme concentration [E] is kept constant. If the extinction (OD) (= optical density) is plotted in a co-ordinate system as a function of time, a curve is obtained the tangent of which (difference in extinction per minute, Δ OD/minute, from which the quantity in μmoles of pNA/min (v) can be calculated) at time zero corresponds to the ideal course of the hydrolysis. By means of this tangent the initial rate of the hydrolysis can be determined.
If 1/v is plotted against 1/[S], a Lineweaver-Burk diagram (cf. "Kurzes Lehrbuch der Biochemie" by P. KARSON, Georg Thieme-Verlag, Stuttgart, 1967, p. 70) is obtained from which vmax and Km can be determined graphically.
Km and k3 = vmax /E were determined with N^α-Bz-Pro-Phe-Arg-pNA^. HCl (i.e. the substrate prepared according to Example 1) for plasma kallikrein, trypsin, plasmin and thrombin.

Chain of plasma kallikrein (Homo sapiens) (chain, as listed by the source): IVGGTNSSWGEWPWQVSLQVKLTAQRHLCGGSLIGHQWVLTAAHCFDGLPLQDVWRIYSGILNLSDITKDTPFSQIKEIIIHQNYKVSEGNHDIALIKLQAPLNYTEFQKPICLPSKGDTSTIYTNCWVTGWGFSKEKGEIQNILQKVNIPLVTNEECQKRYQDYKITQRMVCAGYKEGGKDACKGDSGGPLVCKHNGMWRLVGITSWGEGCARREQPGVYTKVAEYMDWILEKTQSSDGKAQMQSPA

Regarding plasma kallikrein (Homo sapiens), the Km (in general, the concentration of substrate that gives half-maximal velocity) was 282 µM.

Source of the values: patent US4016042A, “Substrate for the quantitative determination of enzymes” (Pentapharm A.G., priority 1974, dated 1977).
